The target in test [1] is Canine CD20 (canine) (UniProt Q3C2E2). As to the kind of experiment: cell-based or functional assay.
Test [2] shares this target. As to the kind of experiment: FACS on CHO cells expressing recombinant canine CD20.

Sequence of Canine CD20 (canine) (Q3C2E2 other isoform, or with tags, fused parts or gaps): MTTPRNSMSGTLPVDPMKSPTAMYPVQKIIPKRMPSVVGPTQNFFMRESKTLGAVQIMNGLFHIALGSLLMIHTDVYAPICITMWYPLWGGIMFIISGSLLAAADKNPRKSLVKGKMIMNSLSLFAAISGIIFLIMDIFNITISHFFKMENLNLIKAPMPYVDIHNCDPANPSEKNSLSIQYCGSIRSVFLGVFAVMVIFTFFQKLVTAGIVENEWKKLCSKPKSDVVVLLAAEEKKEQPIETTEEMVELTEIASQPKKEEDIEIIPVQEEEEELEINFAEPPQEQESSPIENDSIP

B1: anti-canine CD20 antibody CD20-4 (antibody, part only; not given: light chain, V domains shown, part only)
VH: EVQLQQSVAELVRPGASVTLSCKASGYTFTDYEMHWVKQTPVHGLEWIGEIDPETGGTAYNQKFKGKAILTADKSSSTAYMELRSLTSEDSAVYYCTEYAMDYWGQGTSVTVSS
In the case of B1, the Reduction (%) of cell proliferation of lymphoma cells in test [1] stood at 17.5%. The Kd (as a rule, the equilibrium constant for the complex coming apart) in test [2] came to 77.4 nM.

The record behind these values is patent US20170002084A1.
